Data reported in the RNAGym collection of RNA variant scans (doi:10.1101/gr.219683.116).

B1: mRNA-splicing (parent)
chain: AGUUGCUGCUGGGAGCUCCAGCACAGUGAAAUGGACAGAAGGGCAGAGCAA

Variants of: B1
Experiment: exon inclusion enrichment index; higher = more inclusion; WT1 exon 5 minigene, HEK293

| Variant | exon inclusion enrichment index |
| --- | --- |
| G5C C6G U7C U10C G46U A47G | 2.91 |
| G5C C6G U7C U10C G46U A47C | 3.73 |
| G5C C6G U7C U10C G46U A47U | 3.93 |
| G5C C6G U7C U10C G34U A35C | 1.66 |
| G5C C6G U7C U10C G34U A35G | 1.24 |
| G5C C6G U7C U10C G34U A35U | 1.2 |
| G5C C6G U7C U10C G38U A39C | 3.03 |
| G5C C6G U7C U10C G38U A39U | 0.22 |
| G5C C6G U7C U10C G38U A39G | 2.02 |
| G5C C6G U7C U10C G38A A39G | 2.72 |
| G5C C6G U7C U10C G38A A39C | 2.65 |
| G5C C6G U7C U10C G38A A39U | 0.365 |
| G5C C6G U7C U10C C44G A45U | 3.36 |
| G5C C6G U7C U10C C44G A45G | 1.17 |
| G5C C6G U7C U10C C44G A45C | 5.06 |
| G5C C6G U7C U10C G28C | 2.68 |
| G5C C6G U7C U10C G28A | 1.63 |
| G5C C6G U7C U10C G28U | 1.05 |
| G5C C6G U7C U10C A45U | 4.56 |
| G5C C6G U7C U10C A45C | 3.17 |
| G5C C6G U7C U10C A45G | 5.32 |
| G5C C6G U7C U10C A47C G48C | 2.99 |
| G5C C6G U7C U10C A47C G48A | 1.78 |
| G5C C6G U7C U10C A47C G48U | 2.62 |

| Variant | exon inclusion enrichment index |
| --- | --- |
| G5C C6G U7C U10C A40C | 3.66 |
| G5C C6G U7C U10C A40G | 3.16 |
| G5C C6G U7C U10C A40U | 2.71 |
| G5C C6G U7C U10C G46A A47G | 1.33 |
| G5C C6G U7C U10C G46A A47C | 3.6 |
| G5C C6G U7C U10C G46A A47U | 3.68 |
| G5C C6G U7C U10C G41U G42U | 2.79 |
| G5C C6G U7C U10C G41U G42C | 3.95 |
| G5C C6G U7C U10C G41U G42A | 1.45 |
| G5C C6G U7C U10C G21U C22A | 1.73 |
| G5C C6G U7C U10C G21U C22U | 1.36 |
| G5C C6G U7C U10C G21U C22G | 3.57 |
| G5C C6G U7C U10C C36A A37U | 2.07 |
| G5C C6G U7C U10C C36A A37C | 3.59 |
| G5C C6G U7C U10C C36A A37G | 2.14 |
| G5C C6G U7C U10C G34A A35G | 2.26 |
| G5C C6G U7C U10C G34A A35C | 2.92 |
| G5C C6G U7C U10C G34A A35U | 1.96 |
| G5C C6G U7C U10C C22G A23U | 1.01 |
| G5C C6G U7C U10C C22G A23C | 2.56 |
| G5C C6G U7C U10C C22G A23G | 2.57 |
| G5C C6G U7C U10C G21A C22A | 1.7 |
| G5C C6G U7C U10C G21A C22G | 3.81 |
| G5C C6G U7C U10C G21A C22U | 1.87 |

| Variant | exon inclusion enrichment index |
| --- | --- |
| G5C C6G U7C U10C C16U U17C | 2.87 |
| G5C C6G U7C U10C C16U U17A | 3.78 |
| G5C C6G U7C U10C C16U U17G | 3.07 |
| G5C C6G U7C U10C U17G C18G | 2.48 |
| G5C C6G U7C U10C U17G C18U | 3.11 |
| G5C C6G U7C U10C U17G C18A | 3.39 |
| G5C C6G U7C U10G G11U | 2.66 |
| G5C C6G U7C U10G G11C | 2.32 |
| G5C C6G U7C U10G G11A | 2.98 |
| G5C C6G U7C U10C C36G A37U | 2.09 |
| G5C C6G U7C U10C C36G A37G | 1.19 |
| G5C C6G U7C U10C C36G A37C | 1.47 |
| G5C C6G U7C U10C A40G G41U | 3.4 |
| G5C C6G U7C U10C A40G G41A | 1.99 |
| G5C C6G U7C U10C A40G G41C | 3.83 |
| G5C C6G U7C U10C A45C G46A | 2.12 |
| G5C C6G U7C U10C A45C G46U | 1.87 |
| G5C C6G U7C U10C A45C G46C | 2.31 |
| G5C C6G U7C U10C G21C C22A | 3.02 |
| G5C C6G U7C U10C G21C C22G | 4.61 |
| G5C C6G U7C U10C G21C C22U | 3.43 |
| G5C C6G U7C U10C G42C G43C | 3.63 |
| G5C C6G U7C U10C G42C G43U | 3.91 |
| G5C C6G U7C U10C G42C G43A | 4 |

| Variant | exon inclusion enrichment index |
| --- | --- |
| G5C C6G U7C U10C C16G U17A | 4.71 |
| G5C C6G U7C U10C C16G U17C | 2.62 |
| G5C C6G U7C U10C C16G U17G | 1.27 |
| G5C C6G U7C U10C C16G | 2.97 |
| G5C C6G U7C U10C C16A | 4.33 |
| G5C C6G U7C U10C C16U | 4.22 |
| G5C C6G U7C U10C U32G G33C | 3.31 |
| G5C C6G U7C U10C U32G G33U | 1.88 |
| G5C C6G U7C U10C U32G G33A | 1.79 |
| G5C C6G U7C U10C C22U A23C | 2.02 |
| G5C C6G U7C U10C C22U A23G | 3.6 |
| G5C C6G U7C U10C C22U A23U | 2.76 |
| G5C C6G U7C U10C C44A A45G | 5.42 |
| G5C C6G U7C U10C C44A A45C | 4.3 |
| G5C C6G U7C U10C C44A A45U | 5.86 |
| G5C C6G U7C U10C U27C | 4.97 |
| G5C C6G U7C U10C U27A | 3.66 |
| G5C C6G U7C U10C U27G | 2.02 |
| G5C C6G U7C U10C G13U A14G | 1.28 |
| G5C C6G U7C U10C G13U A14C | 1.67 |
| G5C C6G U7C U10C G13U A14U | 1.35 |
| G5C C6G U7C U10C G15U C16A | 3.58 |
| G5C C6G U7C U10C G15U C16U | 3.3 |
| G5C C6G U7C U10C G15U C16G | 4.02 |

| Variant | exon inclusion enrichment index |
| --- | --- |
| G5C C6G U7C U10C G12A G13U | 0.589 |
| G5C C6G U7C U10C G12A G13A | 1.51 |
| G5C C6G U7C U10C G12A G13C | 1.55 |
| G5C C6G U7C U10C C18U C19G | 2.78 |
| G5C C6G U7C U10C C18U C19A | 0.76 |
| G5C C6G U7C U10C C18U C19U | 0.197 |
| G5C C6G U7C U10C U27A G28A | 3.01 |
| G5C C6G U7C U10C U27A G28C | 3.86 |
| G5C C6G U7C U10C U27A G28U | 1.9 |
| G5C C6G U7C U10C C18U | 3.14 |
| G5C C6G U7C U10C C18A | 3.25 |
| G5C C6G U7C U10C C18G | 3.71 |
| G5C C6G U7C U10C C22G | 3.75 |
| G5C C6G U7C U10C C22U | 3.4 |
| G5C C6G U7C U10C C22A | 3.06 |
| G5C C6G U7C U10C U27G G28U | 0.0303 |
| G5C C6G U7C U10C U27G G28C | 2.55 |
| G5C C6G U7C U10C U27G G28A | 3.58 |
| G5C C6G U7C U10C A45G G46U | 3.14 |
| G5C C6G U7C U10C A45G G46A | 6.29 |
| G5C C6G U7C U10C A45G G46C | 3.05 |
| G5C C6G U7C U10C A39U A40G | 1.59 |
| G5C C6G U7C U10C A39U A40U | 1.88 |
| G5C C6G U7C U10G | 1.86 |

| Variant | exon inclusion enrichment index |
| --- | --- |
| G5C C6G U7C U10C C16A U17A | 4.02 |
| G5C C6G U7C U10C C16A U17G | 3.25 |
| G5C C6G U7C U10C C16A U17C | 4.04 |
| G5C C6G U7C U10C G15C | 3.44 |
| G5C C6G U7C U10C G15A | 2.71 |
| G5C C6G U7C U10C G15U | 3.45 |
| G5C C6G U7C U10C C36U | 1.33 |
| G5C C6G U7C U10C C36A | 2.93 |
| G5C C6G U7C U10C C36G | 3.17 |
| G5C C6G U7C U10C C19A A20C | 2.85 |
| G5C C6G U7C U10C C19A A20G | 0.953 |
| G5C C6G U7C U10C C19A A20U | 1.52 |
| G5C C6G U7C U10C G43A C44A | 4.31 |
| G5C C6G U7C U10C G43A C44G | 4.94 |
| G5C C6G U7C U10C G43A C44U | 3.64 |
| G5C C6G U7C U10C C24A A25G | 3.65 |
| G5C C6G U7C U10C C24A A25U | 2.85 |
| G5C C6G U7C U10C C24A A25C | 4.48 |
| G5C C6G U7C U10C G11A G12A | 1.91 |
| G5C C6G U7C U10C G11A G12U | 1.83 |
| G5C C6G U7C U10C G11A G12C | 1.51 |
| G5C C6G U7C U10C G26U U27A | 2.22 |
| G5C C6G U7C U10C G26U U27C | 4.3 |
| G5C C6G U7C U10C G26U U27G | 3.98 |

| Variant | exon inclusion enrichment index |
| --- | --- |
| G5C C6G U7C U10C U17C C18U | 3.54 |
| G5C C6G U7C U10C U17C C18G | 4.56 |
| G5C C6G U7C U10C U17C C18A | 3.59 |
| G5C C6G U7C U10C G11C G12C | 1.04 |
| G5C C6G U7C U10C G11C G12U | 0.699 |
| G5C C6G U7C U10C G11C G12A | 1.1 |
| G5C C6G U7C U10C G13A | 3.34 |
| G5C C6G U7C U10C G13U | 0.534 |
| G5C C6G U7C U10C G13C | 1.53 |
| G5C C6G U7C U10C G28U A29U | 1.08 |
| G5C C6G U7C U10C G28U A29C | 2.89 |
| G5C C6G U7C U10C G28U A29G | 3.24 |
| G5C C6G U7C U10C G41C G42U | 4.21 |
| G5C C6G U7C U10C G41C G42A | 3 |
| G5C C6G U7C U10C G41C G42C | 4.35 |
| G5C C6G U7C U10C G41A G42A | 2.54 |
| G5C C6G U7C U10C G41A G42C | 3.88 |
| G5C C6G U7C U10C G41A G42U | 2.89 |
| G5C C6G U7C U10C G43U C44A | 0.0721 |
| G5C C6G U7C U10C G43U C44U | 1.4 |
| G5C C6G U7C U10C G43U C44G | 0.713 |
| G5C C6G U7C U10C U32C | 4.75 |
| G5C C6G U7C U10C U32A | 3.12 |
